# Measured values: patent publication US20160083465A1 (AVEO PHARMACEUTICALS, published 2016)
# B1: Hu14F11-1 (antibody, human IgG1, kappa)
# heavy: not shown
# light: DIVMTQSQKFMSTSVGDRVSVTCKASQNVGTNVAWYQQKPGQSPKALIYSPSYRYSGVPDRFTGSGSGTDFTLTISNVQSEDLAEYFCQQYNSYPHTFGGGTKLEMKRTVAAPSVFIFPPSDEQLKSGTASVVCLLNNFYPREAKVQWKVDNALQSGNSQESVTEQDSKDSTYSLSSTLTLSKADYEKHKVYACEVTHQGLSSPVTKSFNRGEC
# notes: Mouse variable regions, human IgG1 and kappa constant regions; also called Chimeric 14F11
# B2: Hu14F11-23 (antibody, human IgG1, kappa)
# heavy: not shown
# light: DIVMTQSQKFMSTSVGDRVSVTCKASQNVGTNVAWYQQKPGQSPKALIYSPSYRYSGVPDRFTGSGSGTDFTLTISNVQSEDLAEYFCQQYNSYPHTFGGGTKLEMKRTVAAPSVFIFPPSDEQLKSGTASVVCLLNNFYPREAKVQWKVDNALQSGNSQESVTEQDSKDSTYSLSSTLTLSKADYEKHKVYACEVTHQGLSSPVTKSFNRGEC
# notes: Chimeric 06C11 heavy chain with chimeric 14F11 light chain, human IgG1 kappa; tested in supernatant; also called chimeric light 14F11 with chimeric heavy 06C11
# B3: Hu14F11-24 (antibody, human IgG1, kappa)
# heavy: not shown
# light: DIVMTQSQKFMSTSVGDRVSVTCKASQNVGTNVAWFQQKPGQSPKALIYSASYRYSGVPDRFTGSGSGTDFILTISNVQSEDLAEYFCQQYNNYPLTFGAGTKLELKRTVAAPSVFIFPPSDEQLKSGTASVVCLLNNFYPREAKVQWKVDNALQSGNSQESVTEQDSKDSTYSLSSTLTLSKADYEKHKVYACEVTHQGLSSPVTKSFNRGEC
# notes: Chimeric 14F11 heavy chain with chimeric 06C11 light chain, human IgG1 kappa; tested in supernatant; also called chimeric light 06C11 with chimeric heavy 14F11
# B4: Hu01G06-138 (antibody, human IgG1, kappa)
# heavy: not shown
# light: DIQMTQSPSSLSASVGDRVTITCRTSENLHNYLAWYQQKPGKAPKLLIYDAKTLADGVPSRFSGSGSGTDYTLTISSLQPEDFATYYCQHFWSSPYTFGQGTKLEIKRTVAAPSVFIFPPSDEQLKSGTASVVCLLNNFYPREAKVQWKVDNALQSGNSQESVTEQDSKDSTYSLSSTLTLSKADYEKHKVYACEVTHQGLSSPVTKSFNRGEC
# B5: Hu01G06-122 (antibody, human IgG1, kappa)
# heavy: not shown
# light: DIQMTQSPSSLSASVGDRVTITCRTSENLHNYLAWYQQKPGKAPKLLIYDAKTLADGVPSRFSGSGSGTDYTLTISSLQPEDFATYYCQHFWSSPYTFGQGTKLEIKRTVAAPSVFIFPPSDEQLKSGTASVVCLLNNFYPREAKVQWKVDNALQSGNSQESVTEQDSKDSTYSLSSTLTLSKADYEKHKVYACEVTHQGLSSPVTKSFNRGEC
# B6: Hu01G06-146 (antibody, human IgG1, kappa)
# heavy: not shown
# light: DIQMTQSPSSLSASVGDRVTITCRTSENLHNYLAWYQQKPGKSPKLLIYDAKTLADGVPSRFSGSGSGTDYTLTISSLQPEDFATYYCQHFWSDPYTFGQGTKLEIKRTVAAPSVFIFPPSDEQLKSGTASVVCLLNNFYPREAKVQWKVDNALQSGNSQESVTEQDSKDSTYSLSSTLTLSKADYEKHKVYACEVTHQGLSSPVTKSFNRGEC
# B7: Hu01G06-135 (antibody, human IgG1, kappa)
# heavy: not shown
# light: DIQMTQSPSSLSASVGDRVTITCRTSENLHNYLAWYQQKPGKAPKLLIYDAKTLADGVPSRFSGSGSGTDYTLTISSLQPEDFATYYCQHFWSSPYTFGQGTKLEIKRTVAAPSVFIFPPSDEQLKSGTASVVCLLNNFYPREAKVQWKVDNALQSGNSQESVTEQDSKDSTYSLSSTLTLSKADYEKHKVYACEVTHQGLSSPVTKSFNRGEC
# B8: Hu01G06-127 (antibody, human IgG1, kappa)
# heavy: not shown
# light: DIQMTQSPSSLSASVGDRVTITCRTSENLHNYLAWYQQKPGKSPKLLIYDAKTLADGVPSRFSGSGSGTDYTLTISSLQPEDFATYYCQHFWSDPYTFGQGTKLEIKRTVAAPSVFIFPPSDEQLKSGTASVVCLLNNFYPREAKVQWKVDNALQSGNSQESVTEQDSKDSTYSLSSTLTLSKADYEKHKVYACEVTHQGLSSPVTKSFNRGEC
# Assays:
# [1] = molecular target: T1, mouse IgG1 Fc-mature human GDF15 fusion protein (mFc-rhGDF15) (mouse; human); test: BLI Octet QK, 30 C, antibody from supernatant on anti-human Fc sensor, 400 nM mFc-rhGDF15
# T1 construct: Made in CHOK1SV cells, purified by Protein A and size exclusion; also called mouse Fc fused to human GDF15
# T1 chain: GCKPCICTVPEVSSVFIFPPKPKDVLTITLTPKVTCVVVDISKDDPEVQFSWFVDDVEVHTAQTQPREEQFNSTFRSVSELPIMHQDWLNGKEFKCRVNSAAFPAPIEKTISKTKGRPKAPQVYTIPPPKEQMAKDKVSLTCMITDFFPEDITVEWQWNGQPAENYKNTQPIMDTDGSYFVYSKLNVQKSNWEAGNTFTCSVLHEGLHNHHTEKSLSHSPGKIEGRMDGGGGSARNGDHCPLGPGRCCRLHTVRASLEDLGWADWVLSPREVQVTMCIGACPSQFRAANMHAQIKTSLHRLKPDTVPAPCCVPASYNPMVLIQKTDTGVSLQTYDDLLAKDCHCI
# Method: The Octet analysis was performed at 30° C. using 1× Kinetics Buffer (ForteBio, Inc.) as assay buffer. Anti-human IgG Fc Capture (AHC) biosensors (ForteBio, Inc.) were used to capture human antibodies onto the sensors. Sensors were saturated in assay buffer for at 300 seconds before the assay. […] Baseline was established by dipping the sensors into 1× assay buffer for 200 seconds. Next, association was monitored for 220 seconds in 400 nM mFc-rhGDF15 protein, and dissociation was followed for 600 seconds in buffer alone.
# Kinetic parameters of the antibody, kₐ, kd, and KD were determined.
# [2] = molecular target: T1, mouse IgG1 Fc-mature human GDF15 fusion …; test: SPR Biacore T100, 37 C, purified antibody captured by anti-human IgG Fc, antigen in solution
# Method: (§1) Goat anti-human IgGs (Fc fragment specific, Jackson ImmunoResearch, West Grove, Pa.) were immobilized on carboxymethylated dextran CM4 sensor chips by amine coupling, according to a standard protocol. Analyses were performed at 37° C. using PBS containing 0.05% surfactant P20 as running buffer. The antibodies were captured in individual flow cells at a flow rate of 10 μL/minute. Injection time was varied for each antibody to yield an Rmax between 30 and 60 RU. […] The dissociation phase was monitored for up to 1200 seconds. The surface was then regenerated with two 60-second injections of 10 mM Glycine-HCl, pH 2.25, at a flow rate of 30 μL/minute.
# Kinetic parameters were determined using the kinetic function of the BIAevaluation software (GE Healthcare) with double reference subtraction.
# [3] = molecular target: T2, rabbit IgG1 Fc-mature mouse GDF15 fusion protein (rFc-rmGDF15) (rabbit; mouse); test: as above
# T2 construct: also called rabbit Fc mature recombinant mouse GDF15
# T2 chain: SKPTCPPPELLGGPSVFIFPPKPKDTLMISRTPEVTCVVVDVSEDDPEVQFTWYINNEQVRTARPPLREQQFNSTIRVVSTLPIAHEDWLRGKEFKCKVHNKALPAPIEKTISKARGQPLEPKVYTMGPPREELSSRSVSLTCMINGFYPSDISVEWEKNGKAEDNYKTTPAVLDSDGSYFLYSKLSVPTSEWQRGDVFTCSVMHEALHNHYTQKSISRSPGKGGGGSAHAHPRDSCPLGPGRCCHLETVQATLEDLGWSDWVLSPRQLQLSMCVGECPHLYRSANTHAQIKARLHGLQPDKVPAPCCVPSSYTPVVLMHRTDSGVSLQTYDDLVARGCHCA
# Method: as §1, with “1500” for “1200”
# (§2) Kinetic parameters were determined using the kinetic function of the BIAevaluation software (GE Healthcare) with double reference subtraction. Kinetic parameters for each antibody, kₐ (association rate constant), kd (dissociation rate constant), and KD (equilibrium dissociation constant) were determined Kinetic values of purified monoclonal antibodies on mFc-rhGDF15, mature human GDF15, rFc-rmGDF15, and mFc-rcGDF15 are summarized in Table 27.
# [4] = molecular target: T3, mouse Fc mature recombinant cynomolgus monkey GDF15 (mFc-rcGDF15) (mouse; cynomolgus monkey, UniProt G7PWZ3 193-308); test: as above
# T3 construct: mature; not shown: mouse Fc and any linker
# T3 sequence (looked up): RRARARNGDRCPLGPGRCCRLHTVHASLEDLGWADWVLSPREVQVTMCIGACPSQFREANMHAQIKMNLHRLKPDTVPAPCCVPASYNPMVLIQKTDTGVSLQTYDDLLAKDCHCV
# Method: as §1, with “1500” for “1200”
# as §2
# [5] = molecular target: T1, mouse IgG1 Fc-mature human GDF15 fusion …; test: as above
# Method: as §1, with “1500” for “1200”
# as §2
# [6] = molecular target: T4, cleaved-rhGDF15 (human, UniProt Q99988 197-308); test: as above
# T4 sequence: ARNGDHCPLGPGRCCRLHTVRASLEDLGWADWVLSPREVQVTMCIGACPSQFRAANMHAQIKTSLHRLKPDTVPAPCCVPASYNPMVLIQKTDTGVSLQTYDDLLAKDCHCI
# Method: as §1, with “1500” for “1200”
# as §2
Binder,Kd [1],koff [1],kon [1],Kd [2],koff [2],kon [2],Kd [3],koff [3],kon [3],Kd [4],koff [4],kon [4],Kd [5],koff [5],kon [5],Kd [6],koff [6],kon [6]
B1,0.032 nM,1.9e-05 s⁻¹,630000 M⁻¹ s⁻¹,0.16 nM,0.00046 s⁻¹,3e+06 M⁻¹ s⁻¹,–,–,–,–,–,–,–,–,–,–,–,–
B2,0.18 nM,6.2e-05 s⁻¹,340000 M⁻¹ s⁻¹,–,–,–,–,–,–,–,–,–,–,–,–,–,–,–
B3,0.31 nM,0.00022 s⁻¹,710000 M⁻¹ s⁻¹,–,–,–,–,–,–,–,–,–,–,–,–,–,–,–
B4,–,–,–,–,–,–,0.044 nM,0.0008 s⁻¹,1.9e+07 M⁻¹ s⁻¹,0.025 nM,5.3e-05 s⁻¹,2.3e+06 M⁻¹ s⁻¹,0.011 nM,4.1e-05 s⁻¹,5.9e+06 M⁻¹ s⁻¹,0.0045 nM,2.5e-05 s⁻¹,7.9e+06 M⁻¹ s⁻¹
B5,–,–,–,–,–,–,0.063 nM,0.0014 s⁻¹,2.2e+07 M⁻¹ s⁻¹,0.01 nM,2.4e-05 s⁻¹,2.3e+06 M⁻¹ s⁻¹,0.0065 nM,2.1e-05 s⁻¹,5.9e+06 M⁻¹ s⁻¹,0.0079 nM,3.4e-05 s⁻¹,7.9e+06 M⁻¹ s⁻¹
B6,–,–,–,–,–,–,0.063 nM,0.00072 s⁻¹,1.1e+07 M⁻¹ s⁻¹,0.008 nM,1.5e-05 s⁻¹,2e+06 M⁻¹ s⁻¹,0.0093 nM,2.6e-05 s⁻¹,5.3e+06 M⁻¹ s⁻¹,0.011 nM,5.2e-05 s⁻¹,6.5e+06 M⁻¹ s⁻¹
B7,–,–,–,–,–,–,0.055 nM,0.0019 s⁻¹,3.7e+07 M⁻¹ s⁻¹,0.038 nM,7.9e-05 s⁻¹,2.2e+06 M⁻¹ s⁻¹,0.014 nM,4.4e-05 s⁻¹,5.3e+06 M⁻¹ s⁻¹,0.01 nM,6.2e-05 s⁻¹,7.3e+06 M⁻¹ s⁻¹
B8,–,–,–,–,–,–,0.051 nM,0.0021 s⁻¹,3.9e+07 M⁻¹ s⁻¹,0.0095 nM,1.6e-05 s⁻¹,1.8e+06 M⁻¹ s⁻¹,0.018 nM,4.2e-05 s⁻¹,4.6e+06 M⁻¹ s⁻¹,0.01 nM,3.6e-05 s⁻¹,6.1e+06 M⁻¹ s⁻¹
